The results in this text go back to PMC8913647.

Test [1] has as its target major capsid protein VP1 of GII.4 norovirus Houston/TCH186/2002 (HOV), assembled as virus-like particle (human norovirus GII.4 (Houston/TCH186/2002, HOV)). The test is described as follows: cryo-EM structure; GII.4 HOV VLPs (0.24 mg/ml) in PBS pH 6.0 on graphene oxide coated grids; single-particle reconstruction with icosahedral symmetry imposed (cryoSPARC); ~3.8 Å.
The target is the same in test [2]. The test is described as follows: crystal structure; GII.4 HOV VLP crystallised by hanging-drop vapor diffusion at room temperature; space group I222, 45 VP1 copies in the asymmetric unit, refined with NCS without imposing icosahedral symmetry; 3.0 Å.

Turning to “major capsid protein VP1 of GII.4 norovirus Houston/TCH186/2002 (HOV), assembled as virus-like particle (natural protein)”, the stoichiometry N in test [1] and in test [2] was 180 throughout.
